Source: article PMC4197845 (International journal of cancer. Journal international du …, 2011)

Experiments:
[1] = molecular target: EGFR as used for SPR (BIAcore) (Homo sapiens, UniProt P00533); test: SPR
[2] = molecular target: EGFR extra-cellular domain (EGFR-ECD; a.a. 1-614) fused to a human IgG1 Fc; test: ELISA

koff [1]: 0.0002 s⁻¹
IC50 [2]: 10 nM
B1: 38G7 nanobody (VHH)
VHH: EVQLVESGGGLVQAGGSLRLSCAASGRTFSSYVMGWFRQATGKEREFVATIAWDSGSTYYADSVKGRFTISRDNAKNTVHLQMNSLKPEDTAVYYCAASYNVYYNNYYYPISRDEYDYWGQGTQVTVSS
